# Laboratory results as given in US20250296992A1 (Genmab, published 2025).
# T1: human SLITRK4 (human, UniProt Q8IW52 19-618, limits assumed)
# T1 construct: The method text describes only the SLITRK6 ECD-his construct; also called Hu SLITRK4
# T1 sequence (looked up): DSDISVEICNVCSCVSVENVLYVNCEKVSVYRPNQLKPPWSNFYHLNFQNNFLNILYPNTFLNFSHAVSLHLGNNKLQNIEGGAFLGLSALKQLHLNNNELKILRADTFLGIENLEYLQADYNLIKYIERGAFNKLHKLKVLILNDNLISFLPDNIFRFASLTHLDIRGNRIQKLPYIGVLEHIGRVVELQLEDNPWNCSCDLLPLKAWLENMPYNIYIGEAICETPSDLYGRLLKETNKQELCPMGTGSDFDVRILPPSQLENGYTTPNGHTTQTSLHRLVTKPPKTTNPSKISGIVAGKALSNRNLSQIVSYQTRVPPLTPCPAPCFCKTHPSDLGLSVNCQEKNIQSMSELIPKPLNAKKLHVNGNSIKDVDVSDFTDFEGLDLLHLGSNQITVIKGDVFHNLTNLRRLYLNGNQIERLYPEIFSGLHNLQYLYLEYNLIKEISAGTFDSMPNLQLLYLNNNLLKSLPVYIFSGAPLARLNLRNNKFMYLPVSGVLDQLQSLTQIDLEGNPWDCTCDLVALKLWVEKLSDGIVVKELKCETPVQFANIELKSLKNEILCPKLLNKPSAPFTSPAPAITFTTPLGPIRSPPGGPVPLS
# T2: human SLITRK1 (human, UniProt Q96PX8 18-622, limits assumed)
# T2 construct: The method text describes only the SLITRK6 ECD-his construct; also called Hu SLITRK1
# T2 sequence (looked up): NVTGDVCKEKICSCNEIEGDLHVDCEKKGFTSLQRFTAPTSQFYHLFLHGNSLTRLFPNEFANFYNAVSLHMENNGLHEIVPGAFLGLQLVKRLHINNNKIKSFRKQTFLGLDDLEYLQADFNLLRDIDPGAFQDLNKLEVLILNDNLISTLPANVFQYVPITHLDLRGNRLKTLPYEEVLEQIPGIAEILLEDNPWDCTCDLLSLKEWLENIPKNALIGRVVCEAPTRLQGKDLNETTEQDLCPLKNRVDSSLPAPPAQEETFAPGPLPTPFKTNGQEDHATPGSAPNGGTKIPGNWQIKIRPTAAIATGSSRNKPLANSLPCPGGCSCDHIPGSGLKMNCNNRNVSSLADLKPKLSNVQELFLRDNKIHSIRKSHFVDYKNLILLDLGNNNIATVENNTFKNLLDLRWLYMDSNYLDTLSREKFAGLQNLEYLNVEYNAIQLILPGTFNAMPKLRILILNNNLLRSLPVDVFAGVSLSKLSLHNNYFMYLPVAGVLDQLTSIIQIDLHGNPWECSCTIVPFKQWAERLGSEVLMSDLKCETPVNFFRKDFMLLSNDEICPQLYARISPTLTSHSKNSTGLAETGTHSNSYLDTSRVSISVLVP
# B1: hu1H2-03 with a LALA mutation (hu1H2-03-LALA) (antibody, V domains shown)
# VH: EVQLVESGGGLVQPGGSLRLSCAASGFTFSDYGLHWVRQAPGKGLEWVSYISSGSSTVYFADTLKGRFTISRDNAKNSLYLQMNSLRAEDTAVYYCTRGTWYFDVWGRGTLVTVSS
# VL: DIQMTQSPSSLSASVGDRVTITCRTSENIHSYLAWYQQKPGKSPQLLVYNAKTLADGVPSRFSGSGSGTDYTLTISSLQPEDFGTFYCQHFWTTSRTFGGGTKVEIK
# B2: hu1H2-03-LD038 (antibody, V domains shown)
# VH: B1 VH
# VL: B1 VL
# modifications: drug-linker LD038 conjugated to the antibody; positions not given
# notes: also called hu1H2-03-LALA-LD038; hu1H2-03-LD038 (8)
# Experiments:
# human SLITRK6 on cells [1] = molecular target: T3, human SLITRK6 on cells (human, UniProt Q9H5Y7 27-841); assay: flow cytometry on CHP-212 cells, PE-conjugated anti-human Fc
# T3 construct: whole, on cells
# Method: (§1) Specifically, cells were incubated with 50 μL of mAbs or ADCs in series dilutions in PBS containing 1% BSA at 4° C. for 30 min. The cells were washed twice with PBS containing 1% BSA, stained with PE-conjugated anti human Fc in PBS containing 1% BSA and then incubated at 4° C. for 20 min. After that the cells were washed twice with PBS and analyzed by a flow cytometer.
# human SLITRK6 on cells [2] = molecular target: T3, human SLITRK6 on cells; assay: flow cytometry on RT112/84 cells, PE-conjugated anti-human Fc
# Method: as §1
# human SLITRK6 on cells [3] = molecular target: T3, human SLITRK6 on cells; assay: flow cytometry on RT4 cells, PE-conjugated anti-human Fc
# Method: (§2) The binding activity of mAbs and ADCs was evaluated by flow cytometer (Beckman, Cytoflex). Specifically, cells were incubated with 50 μL of mAbs or ADCs in series dilutions in PBS containing 1% BSA at 4° C. for 30 min. The cells were washed twice with PBS containing 1% BSA, stained with PE-conjugated anti human Fc in PBS containing 1% BSA and then incubated at 4° C. for 20 min. After that the cells were washed twice with PBS and analyzed by a flow cytometer.
# rat SLITRK6 = molecular target: T4, rat SLITRK6 (rat, UniProt D3ZP44 27-607); assay: BLI, antigen on anti-his tips
# T4 construct: extracellular domain; not shown: his tag
# human SLITRK4 = molecular target: T1, human SLITRK4; assay: BLI, antigen on anti-his tips
# Method: (§3) Binding kinetic of antibody-antigen was characterized by the bio-layer interferometry (BLI). 100 nM of SLITRK6′ extracellular domain linked to his tag was immobilized on anti-his biosensor tips (Fortebio). The sensors were rinsed with the buffer (50 mM Tris-AcOH, pH 6 or 7.5, 0.05% v/v surfactant P20) for 10 min to remove the unbound molecules, then dipped in the antibody solutions at different concentrations for 180 seconds and interspersed by a rinsing step in the buffer solution for 300 seconds. Binding affinity was calculated using ForteBio Data Acquisition 6.3 software (ForteBio) and was derived by fitting the kinetic data to a 1:1 Langmuir binding model utilizing global fitting algorithms. The dissociation or association equilibrium constant KD was calculated from the binding rate constants as KD=koff/kₒₙ (where koff and kₒₙ represent the dissociation kinetic constant and the association kinetic constant, respectively).
# human SLITRK1 = molecular target: T2, human SLITRK1; assay: BLI, antigen on anti-his tips
# Method: as §3
# human SLITRK6 on cells [4] = molecular target: T3, human SLITRK6 on cells; assay: flow cytometry on RT4 cells, PE-conjugated anti-human Fc; remark: listed apart in the source
# Method: as §1
# human SLITRK6 on cells [5] = molecular target: T3, human SLITRK6 on cells; assay: flow cytometry on KYSE-410 cells, PE-conjugated anti-human Fc
# Method: as §1
# human SLITRK6 on cells [6] = molecular target: T3, human SLITRK6 on cells; assay: flow cytometry on SW780 cells, PE-conjugated anti-human Fc
# Method: as §1
# human SLITRK6 on cells [7] = molecular target: T3, human SLITRK6 on cells; assay: as above; remark: listed apart in the source
# Method: as §2
# human SLITRK6 on cells [8] = molecular target: T3, human SLITRK6 on cells; assay: flow cytometry on 293F-huSLITRK6 cells, PE-conjugated anti-human Fc
# Method: as §1
# human SLITRK6 on cells [9] = molecular target: T3, human SLITRK6 on cells; assay: flow cytometry on KYSE-30 cells, PE-conjugated anti-human Fc
# Method: as §1
# [10] = molecular target: T5, cynomolgus monkey SLITRK6 extracellular domain linked to his tag (cynomolgus monkey, UniProt G7PVK4 27-608); assay: BLI; antigen-his on anti-his tips, antibody or ADC as analyte; 1:1 fit
# T5 construct: extracellular domain; also called cynoSLITRK6; Cyno SLITRK6; not shown: his tag
# [11] = molecular target: T6, human SLITRK6 extracellular domain linked to his tag (human, UniProt Q9H5Y7 27-608); assay: as above
# T6 construct: extracellular domain; also called huSLITRK6; Hu SLITRK6; not shown: his tag
# mouse SLITRK6 = molecular target: T7, mouse SLITRK6 (mouse, UniProt Q8C110 23-609); assay: as above
# T7 construct: extracellular domain; also called Mu SLITRK6; not shown: his tag
# T7 sequence (Q8C110 23-609): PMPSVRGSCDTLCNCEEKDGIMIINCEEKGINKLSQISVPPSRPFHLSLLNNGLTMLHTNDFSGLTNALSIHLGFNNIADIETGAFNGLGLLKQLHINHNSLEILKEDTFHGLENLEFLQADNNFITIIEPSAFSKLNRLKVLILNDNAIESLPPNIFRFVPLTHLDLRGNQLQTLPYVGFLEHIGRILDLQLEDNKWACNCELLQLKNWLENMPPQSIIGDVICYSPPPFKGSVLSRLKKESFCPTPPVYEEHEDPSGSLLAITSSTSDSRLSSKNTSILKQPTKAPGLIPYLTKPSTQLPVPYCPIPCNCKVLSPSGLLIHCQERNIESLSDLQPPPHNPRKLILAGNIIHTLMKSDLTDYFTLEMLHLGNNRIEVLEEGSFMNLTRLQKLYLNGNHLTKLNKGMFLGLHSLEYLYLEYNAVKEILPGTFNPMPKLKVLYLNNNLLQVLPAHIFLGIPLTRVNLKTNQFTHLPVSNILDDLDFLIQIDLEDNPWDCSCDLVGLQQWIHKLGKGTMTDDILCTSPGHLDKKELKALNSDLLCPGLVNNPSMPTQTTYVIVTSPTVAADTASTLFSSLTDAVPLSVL
Binder,EC50 (read off the curve) (human SLITRK6 on cells [1]),EC50 (read off the curve) (human SLITRK6 on cells [2]),EC50 (read off the curve) (human SLITRK6 on cells [3]),binding result (rat SLITRK6),binding result (human SLITRK4),binding result (human SLITRK1),EC50 (read off the curve) (human SLITRK6 on cells [4]),EC50 (read off the curve) (human SLITRK6 on cells [5]),EC50 (read off the curve) (human SLITRK6 on cells [6]),EC50 (read off the curve) (human SLITRK6 on cells [7]),EC50 (read off the curve) (human SLITRK6 on cells [8]),EC50 (read off the curve) (human SLITRK6 on cells [9]),Kd [10],Kd [11],Kd (mouse SLITRK6)
B1,~0.2 nM,~0.2 nM,~0.3 nM,no binding,no binding,no binding,~0.2 nM,~0.2 nM,~0.3 nM,~0.3 nM,~0.9 nM,~0.2 nM,0.25 nM,0.14 nM,0.59 nM
B2,~0.2 nM,~0.2 nM,,no binding,no binding,no binding,~0.3 nM,~0.2 nM,~0.4 nM,,~1 nM,~0.3 nM,0.21 nM,0.08 nM,0.61 nM
